The values that follow come from patent US20240343814A1.

The target of test [1] is Recombinant human his-tagged IGF 1R extracellular domain protein (human) (UniProt P08069). The test is described as follows: SPR, captured IgG, IGF-1R ECD-his analyte, dissociation pH 7.4.
Test [2] has the same target. The test is described as follows: SPR, captured IgG, IGF-1R ECD-his analyte, dissociation pH 6.

B1: VRDN-02530 (antibody, V domains shown)
VH: EVQLVQSGGGLVKPGGSLRLSCAASGFTFSSFAMHWVRQAPGKGLEWISVIDTRGATYYADSVKGRFTISRDNAKNSLYLQMNSLRAEDTAVYYCARLGNFYYGMDVWGQGTTVTVSS
VL: EIVLTQSPGTLSVSPGERATLSCRAHQSIGSSLHWYQQKPGQAPRLLIKYASQSLSGIPDRFSGSGSGTDFTLTISRLEPEDFAVYYCHQSSRLPHTFGQGTKVEIK
B1: in test [1], the Kd turned out to be 0.102 nM, the off-rate (koff) stood at 1.53e-05 s⁻¹ and the kon stood at 150000 M⁻¹ s⁻¹. In addition, in test [2], the Kd came to 0.029 nM, the off-rate constant (koff) is 1e-06 s⁻¹ and the association rate constant (kon) was 34500 M⁻¹ s⁻¹.

B2: VRDN-02503 (antibody, V domains shown)
VH: EVQLVQSGGGLVKPGGSLRLSCAASGFHFSSFAMHWVRQAPGKGLEWISVIDTRGATYYADSVKGRFTISRDNAKNSLYLQMNSLRAEDTAVYYCARLGNFYYGMDVWGQGTTVTVSS
VL: EIVLTQSPGTLSVSPGERATLSCRASQSIGSSLHWYQQKPGQAPRLLIKYASQSLSGIPDRFSGSGSGTDFTLTISRLEPEDFAVYYCHQSSRLPHTFGQGTKVEIK
Turning to B2, in test [1], the Kd came to 1.53 nM, the dissociation rate constant (koff) is 0.000161 s⁻¹ and the on-rate constant (kon) is 105000 M⁻¹ s⁻¹. In addition, in test [2], the Kd is 0.0262 nM, the koff was 1e-06 s⁻¹ and the association rate constant (kon) stood at 38100 M⁻¹ s⁻¹.

B3: VRDN-02539 (antibody, V domains shown)
VH: EVQLVQSGGGLVKPGGSLRLSCAASGFTFSSFAMHWVRQAPGKGLEWISVIDTRGATYYADSVKGRFTISRDNAKNSLYLQMNSLRAEDTAVYYCARLGNFYYGMDVWGQGTTVTVSS
VL: EIVLTQSPGTLSVSPGERATLSCRASQSIGSSLHWYQQKPGQAPRLLIKHASQSLSGIPDRFSGSGSGTDFTLTISRLEPEDFAVYYCHQSSRLPHTFGQGTKVEIK
In the case of B3, in test [1], the equilibrium dissociation constant (Kd) amounted to 0.00588 nM, the off-rate constant (koff) was 1e-06 s⁻¹ and the on-rate constant (kon) was 170000 M⁻¹ s⁻¹. Besides, in test [2], the Kd was 21.6 nM, the koff amounted to 0.000584 s⁻¹ and the on-rate (kon) worked out at 27000 M⁻¹ s⁻¹.

B4: VRDN-02504 (antibody, V domains shown)
VH: EVQLVQSGGGLVKPGGSLRLSCAASGFTHSSFAMHWVRQAPGKGLEWISVIDTRGATYYADSVKGRFTISRDNAKNSLYLQMNSLRAEDTAVYYCARLGNFYYGMDVWGQGTTVTVSS
VL: EIVLTQSPGTLSVSPGERATLSCRASQSIGSSLHWYQQKPGQAPRLLIKYASQSLSGIPDRFSGSGSGTDFTLTISRLEPEDFAVYYCHQSSRLPHTFGQGTKVEIK
Regarding B4, in test [1], the Kd is 5.08 nM, the koff was found to be 0.000186 s⁻¹ and the kon came out at 36600 M⁻¹ s⁻¹. Further, in test [2], the dissociation constant Kd was 0.0242 nM, the koff came to 1e-06 s⁻¹ and the kon was 41300 M⁻¹ s⁻¹.

B5: VRDN-02543 (antibody, V domains shown)
VH: EVQLVQSGGGLVKPGGSLRLSCAASGFTFSSFAMHWVRQAPGKGLEWISVIDTRGATYYADSVKGRFTISRDNAKNSLYLQMNSLRAEDTAVYYCARLGNFYYGMDVWGQGTTVTVSS
VL: EIVLTQSPGTLSVSPGERATLSCRASQSIGSSLHWYQQKPGQAPRLLIKYASQHLSGIPDRFSGSGSGTDFTLTISRLEPEDFAVYYCHQSSRLPHTFGQGTKVEIK
As to B5, in test [1], the Kd was 0.391 nM, the koff stood at 4.38e-05 s⁻¹ and the kon is 112000 M⁻¹ s⁻¹. For the same molecule, in test [2], the dissociation constant Kd came to 0.025 nM, the koff came out at 1e-06 s⁻¹ and the association rate constant (kon) was determined as 40000 M⁻¹ s⁻¹.

B6: VRDN-02531 (antibody, V domains shown)
VH: EVQLVQSGGGLVKPGGSLRLSCAASGFTFSSFAMHWVRQAPGKGLEWISVIDTRGATYYADSVKGRFTISRDNAKNSLYLQMNSLRAEDTAVYYCARLGNFYYGMDVWGQGTTVTVSS
VL: EIVLTQSPGTLSVSPGERATLSCRASHSIGSSLHWYQQKPGQAPRLLIKYASQSLSGIPDRFSGSGSGTDFTLTISRLEPEDFAVYYCHQSSRLPHTFGQGTKVEIK
For the molecule B6, in test [1], the Kd stood at 0.85 nM, the off-rate (koff) was 2.1e-05 s⁻¹ and the kon was found to be 24700 M⁻¹ s⁻¹. Also, in test [2], the Kd worked out at 0.0319 nM, the koff was found to be 1e-06 s⁻¹ and the on-rate (kon) came out at 31300 M⁻¹ s⁻¹.

B7: VRDN-02542 (antibody, V domains shown)
VH: EVQLVQSGGGLVKPGGSLRLSCAASGFTFSSFAMHWVRQAPGKGLEWISVIDTRGATYYADSVKGRFTISRDNAKNSLYLQMNSLRAEDTAVYYCARLGNFYYGMDVWGQGTTVTVSS
VL: EIVLTQSPGTLSVSPGERATLSCRASQSIGSSLHWYQQKPGQAPRLLIKYASHSLSGIPDRFSGSGSGTDFTLTISRLEPEDFAVYYCHQSSRLPHTFGQGTKVEIK
For B7, in test [1], the Kd was determined as 0.00535 nM, the off-rate constant (koff) is 1e-06 s⁻¹ and the kon is 187000 M⁻¹ s⁻¹. For the same molecule, in test [2], the Kd came to 0.0389 nM, the koff was 1e-06 s⁻¹ and the kon was determined as 25700 M⁻¹ s⁻¹.

B8: VRDN-02532 (antibody, V domains shown)
VH: EVQLVQSGGGLVKPGGSLRLSCAASGFTFSSFAMHWVRQAPGKGLEWISVIDTRGATYYADSVKGRFTISRDNAKNSLYLQMNSLRAEDTAVYYCARLGNFYYGMDVWGQGTTVTVSS
VL: EIVLTQSPGTLSVSPGERATLSCRASQHIGSSLHWYQQKPGQAPRLLIKYASQSLSGIPDRFSGSGSGTDFTLTISRLEPEDFAVYYCHQSSRLPHTFGQGTKVEIK
As to B8, in test [1], the Kd was determined as 0.316 nM, the off-rate constant (koff) is 4.08e-05 s⁻¹ and the kon came to 129000 M⁻¹ s⁻¹. Further, in test [2], the Kd worked out at 0.0292 nM, the koff was 1e-06 s⁻¹ and the kon was determined as 34300 M⁻¹ s⁻¹.

B9: VRDN-02537 (antibody, V domains shown)
VH: EVQLVQSGGGLVKPGGSLRLSCAASGFTFSSFAMHWVRQAPGKGLEWISVIDTRGATYYADSVKGRFTISRDNAKNSLYLQMNSLRAEDTAVYYCARLGNFYYGMDVWGQGTTVTVSS
VL: EIVLTQSPGTLSVSPGERATLSCRASQSIGSSHHWYQQKPGQAPRLLIKYASQSLSGIPDRFSGSGSGTDFTLTISRLEPEDFAVYYCHQSSRLPHTFGQGTKVEIK
Turning to B9, in test [1], the dissociation constant Kd was determined as 0.802 nM, the koff came out at 7.16e-05 s⁻¹ and the on-rate (kon) came to 89300 M⁻¹ s⁻¹. Besides, in test [2], the Kd came to 0.036 nM, the koff is 1e-06 s⁻¹ and the on-rate constant (kon) turned out to be 27800 M⁻¹ s⁻¹.

B10: VRDN-02534 (antibody, V domains shown)
VH: EVQLVQSGGGLVKPGGSLRLSCAASGFTFSSFAMHWVRQAPGKGLEWISVIDTRGATYYADSVKGRFTISRDNAKNSLYLQMNSLRAEDTAVYYCARLGNFYYGMDVWGQGTTVTVSS
VL: EIVLTQSPGTLSVSPGERATLSCRASQSIHSSLHWYQQKPGQAPRLLIKYASQSLSGIPDRFSGSGSGTDFTLTISRLEPEDFAVYYCHQSSRLPHTFGQGTKVEIK
Regarding B10, in test [1], the Kd came to 0.0051 nM, the off-rate (koff) amounted to 1e-06 s⁻¹ and the kon is 196000 M⁻¹ s⁻¹. Further, in test [2], the equilibrium dissociation constant (Kd) was 0.0393 nM, the koff worked out at 1.17e-06 s⁻¹ and the kon stood at 29800 M⁻¹ s⁻¹.

B11: VRDN-02535 (antibody, V domains shown)
VH: EVQLVQSGGGLVKPGGSLRLSCAASGFTFSSFAMHWVRQAPGKGLEWISVIDTRGATYYADSVKGRFTISRDNAKNSLYLQMNSLRAEDTAVYYCARLGNFYYGMDVWGQGTTVTVSS
VL: EIVLTQSPGTLSVSPGERATLSCRASQSIGHSLHWYQQKPGQAPRLLIKYASQSLSGIPDRFSGSGSGTDFTLTISRLEPEDFAVYYCHQSSRLPHTFGQGTKVEIK
As for B11, in test [1], the dissociation constant Kd is 0.363 nM, the koff worked out at 4.07e-05 s⁻¹ and the kon worked out at 112000 M⁻¹ s⁻¹. Further, in test [2], the Kd amounted to 0.0273 nM, the koff came out at 1e-06 s⁻¹ and the association rate constant (kon) turned out to be 36600 M⁻¹ s⁻¹.

B12: VRDN-02541 (antibody, V domains shown)
VH: EVQLVQSGGGLVKPGGSLRLSCAASGFTFSSFAMHWVRQAPGKGLEWISVIDTRGATYYADSVKGRFTISRDNAKNSLYLQMNSLRAEDTAVYYCARLGNFYYGMDVWGQGTTVTVSS
VL: EIVLTQSPGTLSVSPGERATLSCRASQSIGSSLHWYQQKPGQAPRLLIKYAHQSLSGIPDRFSGSGSGTDFTLTISRLEPEDFAVYYCHQSSRLPHTFGQGTKVEIK
With B12, in test [1], the Kd was found to be 0.00654 nM, the off-rate (koff) stood at 1e-06 s⁻¹ and the kon was 153000 M⁻¹ s⁻¹. Also, in test [2], the equilibrium dissociation constant (Kd) is 0.028 nM, the koff turned out to be 1e-06 s⁻¹ and the kon is 35700 M⁻¹ s⁻¹.

B13: VRDN-02536 (antibody, V domains shown)
VH: EVQLVQSGGGLVKPGGSLRLSCAASGFTFSSFAMHWVRQAPGKGLEWISVIDTRGATYYADSVKGRFTISRDNAKNSLYLQMNSLRAEDTAVYYCARLGNFYYGMDVWGQGTTVTVSS
VL: EIVLTQSPGTLSVSPGERATLSCRASQSIGSHLHWYQQKPGQAPRLLIKYASQSLSGIPDRFSGSGSGTDFTLTISRLEPEDFAVYYCHQSSRLPHTFGQGTKVEIK
Take B13: in test [1], the Kd turned out to be 0.00746 nM, the koff was determined as 1e-06 s⁻¹ and the kon stood at 134000 M⁻¹ s⁻¹. Moreover, in test [2], the Kd amounted to 0.0228 nM, the koff turned out to be 1e-06 s⁻¹ and the kon amounted to 43900 M⁻¹ s⁻¹.

B14: VRDN-02533 (antibody, V domains shown)
VH: EVQLVQSGGGLVKPGGSLRLSCAASGFTFSSFAMHWVRQAPGKGLEWISVIDTRGATYYADSVKGRFTISRDNAKNSLYLQMNSLRAEDTAVYYCARLGNFYYGMDVWGQGTTVTVSS
VL: EIVLTQSPGTLSVSPGERATLSCRASQSHGSSLHWYQQKPGQAPRLLIKYASQSLSGIPDRFSGSGSGTDFTLTISRLEPEDFAVYYCHQSSRLPHTFGQGTKVEIK
Take B14: in test [1], the Kd was 0.519 nM, the off-rate constant (koff) was 4.45e-05 s⁻¹ and the on-rate (kon) turned out to be 85700 M⁻¹ s⁻¹. In addition, in test [2], the Kd was 0.0493 nM, the koff was 1e-06 s⁻¹ and the association rate constant (kon) was 20300 M⁻¹ s⁻¹.

B15: VRDN-02540 (antibody, V domains shown)
VH: EVQLVQSGGGLVKPGGSLRLSCAASGFTFSSFAMHWVRQAPGKGLEWISVIDTRGATYYADSVKGRFTISRDNAKNSLYLQMNSLRAEDTAVYYCARLGNFYYGMDVWGQGTTVTVSS
VL: EIVLTQSPGTLSVSPGERATLSCRASQSIGSSLHWYQQKPGQAPRLLIKYHSQSLSGIPDRFSGSGSGTDFTLTISRLEPEDFAVYYCHQSSRLPHTFGQGTKVEIK
On to B15, for which, in test [1], the equilibrium dissociation constant (Kd) was determined as 0.434 nM, the off-rate constant (koff) came to 4.25e-05 s⁻¹ and the kon is 97900 M⁻¹ s⁻¹. Besides, in test [2], the dissociation constant Kd came out at 0.0662 nM, the off-rate (koff) was 1e-06 s⁻¹ and the kon stood at 15100 M⁻¹ s⁻¹.

Usually Kd stands for the free concentration of one partner at which half of the binding sites on the other are occupied at equilibrium, for simple one-to-one binding. The koff is a measure of how fast the partners let go of each other. The kon is the rate constant with which the complex forms.
